Measured values as given in the nanobody polyreactivity screen of Harvey et al. (2022).

Test: yeast display, Sf9 membrane polyspecificity reagent, FACS + sequencing; frameworks hold sequencing errors
Summary of the method: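 In a synthetic yeast display library (Saccharomyces cerevisiae BJ5465), nanobody expression was induced with galactose for 36–48 hours. FACS gates were set low and high (top ~1%) using anti-HA fluorescence for expression and streptavidin fluorescence for binding of the Sf9 membrane reagent. Each polyreactivity label is drawn from the gate of origin.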

| Sequence | polyreactivity (PSR sort gate) |
| --- | --- |
| QVQLVESGGGLVQAGGSLRLSCAASGSIFSYYAMGWYRQAPGKERELVAAIRWRTGNTYYADSVKGRFTISRDNAMNTVYLQMNSLKPEDTAVYYCNAVYRYNYGYREYEYWGQGTQVTVSS | high polyreactivity |
| QVQLVESGGGLVQAGGSLRLSCAASGSTLYKYAMGWYRQAPGKERELVATITRTDSTNYADSVKGRFTISRDNAKNTVYLQMNSLKPEDTAVYYCNRGFDWWYRYRHYDYWGQGTQVTVSS | low polyreactivity |
| QVQLVESGGGLVQAGGSLRLSCAASGFIFYVNDMGWYRQAPGKERELVADISGGTSTNYADSVKGRFTMSRDNAKNTVYLQMNSLNPEDTAVYYCNKYVAYDYWGQGTQVTVSS | low polyreactivity |
| QVQLVESGGGLVQAGGSLRLSCAASGRTFGWYTMGRYRQAPGKEREMVAGISSSGGSTYYADSVKGRFTISRDNAKNTVYLQMNSMKPEDTAVYYFARETYPHGLYYRPYDYWGQGTQVTVSS | low polyreactivity |
| QVQLVESGGGLVQAGGSLRLSCAASGITFYRYAMGWYRQARGKERELVADITSSGGSTYYADSVKGRFTISRDNAKNTVYLQMNSLKPEDTAVYYFNAAYYFSRIVYPYDYWGQGTQVTVSS | high polyreactivity |
| QVQLVESGGGLVQEGGSLRLSCAASGSTFSRYAMGWYRQAPGKERELVAAISSRGGSTYYADSVKGRFTISRDNAKNNVYLQMNSLKPEDTAVYYCNALTSYQNHVYPYDYWGQGTQVTVSS | high polyreactivity |
| QVQLVESGGGLVQAGGSLRLSCAASGSIFYYYAMVWSRQAPGKERELVAAISSGGRTYYADSVKGRFTISRDNAKYTVYLQMNSLKPEDTAVYYCAAVLRSNRGGYWGQGTQVTVSS | high polyreactivity |
| HVQLVESGGGIVQAGGSLRLSCAASGLIFSYYAMGWYRQAPGKERELVAAINSGGSTYYADSVKGRFTISRDNAKNTVYLQMNSLKPEDSAVYYCAAHLWYHGHLFDYWGQGTQVTVSS | high polyreactivity |
| QVQLVESGGGLVQAGGSLRLSCAASGFIFWWYAMGWYRQAPGKERELVATITASVGSTNYADSVKGRFTISRDNAKNTVYLQMNSLKPEDTAVYYCASDIIGAIRDWDHTRMDYWGQGTQVNVSS | low polyreactivity |
| QVQLVESGGGLVQAGGSLRLSCAASGRTSSSNAMGWYRQAPGKERELVATISRTGSTYYADSVKGRFTISRDNAKNTVYLQMNSLKPEDTAVYYCNRYFSEALLHGSCYNRYYYWGQGTQVTVSS | low polyreactivity |
| QVQLVESGGGLVQAGGSLRLSCAASGSILSSYAMGWYRQAPGKERELVAAISKSGTRTYYADSVKGRFTISRDNAKNTVYLQMNSLKPEDTAVYYCAVVYYGSIFVLEYDYWGQGTQVTVSS | high polyreactivity |
| QVQRVDSGGGLVQAGGSLRLSCAASGRILRDYDRGWYRQAPGKDRELVAAINWSDGSTYYADSVKGRFTISRDNAKNTVYLQMNSLKPEDTAVYYCAASRWRPLERGTTWLHDYWGQGTQVTVSS | low polyreactivity |
| QVQLVESGGGLDQAGGSLRLSWAASGFTFKNYTMGWYRQAPGKERELVAAISKSGDITYYADSVKGRFTISRDNAKNTVYLQMNSLKPEDTAVYYCNAPRRNWSYDYWGQGTQVTVSS | high polyreactivity |
| QVQLVESAGGLVQAGGSLRLSCAASGNTFATYAMGWYRQAPGKERELVAAITWTGGRTRYADSVKVRFTISRDNAKNTVYLPMNSLKPEDTAVYYCAAKRYDTTYDSWGQGTQVTVSS | high polyreactivity |
| QVQLVESGGGLVQAGGTLRLSCAASGRTYYPNTMGWYRQAPGKERELVATITRSGGNTYADSVKGRFTISRDNAKNTVYFQMTSLKPEDTAVYYCAARNGRIAWMNYWGQGTQVTVSS | low polyreactivity |
| QLQLVESGGGLVQAGGSLRLSCAASGSTSVTNAMGWYRQAPGKEREFVATINYSGTSTYYADSVKGRFTISRDNAKNTVYLQMNSLKPEDTAVYYCNAHDFGFYRFSLPGYDYWGQGTQVTVSS | low polyreactivity |
| QVQLVESGGGLVQAGGSLRLSCAASGRIFDGNAMGWYRQAPGKERELVAAISWTGGSTYYADSVKGRFTISRDNAKNTVYLQMNSLKPEDTAVYYCAADSGWWLDQWSWYDYWGQGTQVTVSS | low polyreactivity |
| QVQLVESGGGLVQAGGSLRLSCAASGRIFEHYAMGWYRQAPGKERELVATISSGGSTYYADSVKGRFTISRDNAKNTVYLQMNSLKPEDTAVYYCAAERFWPYKSYYWGQGTQVTVSS | low polyreactivity |
| QVQLVESGGGLVQAGGSLRLSCSASGRTFGAYAMGWSRQAPGKERELVASISRSGGTTYYADSVKGRFTISRDNAKNTVYLQMNSLKPEDTAVYYCAAQYVRYGHYYWGQGTQVTVSS | high polyreactivity |
| QVQLVESGGGLVQAGGSLRLSCAASGRIVYRYAMGWYRQAPGKERELVAAISSGGSTYYADSVKGRFTISRDNAKNTVYLQMNSLKPEDTAVYYCAATWGRGTYYLYYYWGQGTQVTGSS | high polyreactivity |
| QVQLVESGGGLVQAGGSLRLSCAASGSTFYINAMGWYRQAPGKERELVAAISWSTTITYYADSVKGRFTISRDNAKNTVYLQMNSLKPEDTAVYYCAAEEEYWDYSGGGYWGQGTQVTVSS | high polyreactivity |
| QVQLVESGGGLVQAGGSLRLSCAASGFIFSRNAMGWYRQAPGKEREFVAAISGRGGSTYYADSVKGRFTISRDNAKNTVYVQMNSLKPEDTAVYYCAVYSYGQTYSGYYLGQGTQVTVSS | high polyreactivity |

| Sequence | polyreactivity (PSR sort gate) |
| --- | --- |
| QVQLVESGGGLVQAGGSLRLSCASSGRTFAYNALGWYREAPGKERELVAAISASGGSTYYADSVKGRFTISRDNAKNTVYLQMNSLKPEDTAVYYCAAYVRSAYYAIHVDYWGQGTQVTVSA | low polyreactivity |
| QVQLVESGGGLVQAGGSLRLSCAASGSIFKSYAMGWYRQPPGKERELVAAISWSGTSTYYADSVKGRFTISRDNAKNTVYLLMNSLKPEDTAVYYCNAVSVSSKRSDYWGQGTQVTVSS | low polyreactivity |
| QVQLVESGGGLVQAGGSLRLSCAASGSTFSTNAMGWFIQAPGKARELVAGISRSGGRTYYADSVKGRFTISRDNAKTTVYLQMNSLKPEETAVYYSNAVRRFASPSPHYYWGQGTQVTLSS | high polyreactivity |
| QVQLVESGGGLVQAGGSLRLSCAASGINFKRYAMGWYRQAPGKESELVATINRDGRTSYADSVKGRFTISRDNAKNTVYLQMNSLKQEDTAVYYFNKRGTYATPTPGNLFDYWGQGTLVTVSS | low polyreactivity |
| QVQLVESGGGLVQAGGILRLSCAASGIIFQRNEMGWYRQTPGKERELVANIRDGGITYADSVKGRFTISRDNAKNTVYLEMNSLKPEDTAVYYCARDDTSPGYCDQSSNAAYYYWGQGTQVTVSS | low polyreactivity |
| QVQLVESGGGLVQAGGSLRLSCAASGFIFRINAMGWYRQAPGKERELVAAISSSGGSTYYADSVKGRFTISRDNAKNTVYLQMNSLKPEDTAVYYCNAVGTGGYSSEYGYWGQGTQVTVSS | high polyreactivity |
| QVQLVESGGGLVQAGGSLRLSCAPSGFIFDYNAMGWYRQAPGKERELVAAISISGGGTYYADSVKGRFTISRDNAKNTVYLQMNSLKPEDTAVYYCATAGRYDAYDYWGQGTQVTVSS | low polyreactivity |
| QVQLVESGGGLVQAGGSLRLSCAASGSIFVGYDMGWYRQAPGKERELVAAITGTVSTYYADSVKGRFTISRDNAKNTVYLQMNSLKPEDTAVYYCAAEFVYAYGDGGVYWSWMEYWGQGTQVTVSS | low polyreactivity |
| QVQLVESGGGLVQAGGSLRLSCAASGSIFVGYAMGWYRQAPGKERELVAAISSNGGSTYYADSVKGRFTISRDNAKNTVYLQMNSLKPEDTAVYYCAAGVRRVYASGHGAYGYWGQGTQVTVSS | low polyreactivity |
| QVQLVESGGGLVQAGGSLRLSCAASGSTIYFNGMGWYRQAPGKERELVAAITSGGSTDYADSVKGRFTISRDNAKNTVYLQMNSLKPEDTAVYYCAADHYGRYDYWGQGTQVTVSS | low polyreactivity |
| QVQLVESGGGLVQAGGSLRLSCAASGFTIFIYAMGWYRQAPGKEREFVAAITGSGGSTYYADSVKGRFTISRDNAKNTVYLQMNSLKPEDTAVYYCAAESEYVYWYYVDYDYWGQGTQVTVSS | high polyreactivity |
| QVQLVESGGGLVQAGGSLRLSCAASGSTFVLYAMGWYRQAPGKERELVATITTSGARTHYADSVKGRFTISRDNAKNTVYLQINSLKPEDTAVYYCAAESYWTGYDYGGQGTQVTVSS | low polyreactivity |
| QVQLVESGGGLVQAGGSLRLSCAASGSIFGPYAMGWYRQAPGKERELVAAITKSGGSTYYADSVKGRFTISRDNAKNTVYLQMNSLKPEDTSVYYCAADYGHEYWGQGTQVTVSS | low polyreactivity |
| QVQLVESGGGLVQAGGSLRLSCAASGIIFEYYAKGWYRQAPGKERELVAAITSDGSTNYADSVKGRFTISRDNEKNTVYLQMNRLKPEDTAVYYCNADLKANIQGVLSTGDDYWGQGTQVTVSS | low polyreactivity |
| QVQLVESGGGLVQARGSLRLSCAASGRTFGNYAMGWYRQSPGKERELVASINTGGSTSYADSVKGRFTISRDNAKNTVYFLMNSLKPEDTAVYYCARSFFWYRLHVYWGQGTQVTVSS | low polyreactivity |
| QVQLVESGGGLVQAGGSLRLSCAASGRTFVYYAMGWYRQAPGKERELVASISSGGGSTNYADSVKGRFTISRDNAKNTVYLQMNSLKPEDTAVYYCAVDTPRYRYYRTSYDYWGQGTQVTVSS | low polyreactivity |
| QVQLVESGGGLVQAGGSLRLSCAASGFTFSYYSMGRYRQAPGKERELVARISFSGTRTYYADSVKGRFTISRDNAKNTVYLQMNSLKPEDTAVYYCARRYRDYGRYGYWGQGTQVTVSS | high polyreactivity |
| QVQLVESGGGLVQAGGSLRLSCAASGRTFGPNAMGWYRQAPGKERELVAAISGSGGSTYYADSVKGRFTISRDNAKNTVYLQMYSLKPEDTAVYYCAARHRQQKLDYWGQGTQVTVSS | high polyreactivity |
| QVQLVESGGGLVQAGGSLRLSCAASGSIFGWYAMGWYRQAPGKEREFVATISRRGGRTYYADSVKGRFTISRDNAKNTVYLQMNSLKPEDTAVYYCAANSVYKEDYWGQGTQVTVSS | high polyreactivity |
| QVQLVESGGGLVQAGGSLRLSCAASGFIFEWNGMGWYRQAPGKERELVAAITWSGGSTYYADSVKGRFTISRDNAKNTVYLQMISLKPEDTAVYYCAADFPEYYLPYDNWGQGTQVTVSS | low polyreactivity |
| QVQLVESGGGLVQAGGSLRLSCAASGFTFKGNAMGWKRPAPGKERELVAGISRSGRTYYADSVKGRFTISRDNAKNTVYLQMNSLKPEDTAVYYCNVVYTYWRYYRWREYDYWGQGTQVTVSS | high polyreactivity |
